Columns and labels:
[1] = reported value for Adcetris; cited from earlier work
[2] = Rat safety study with cAC10 ADCs 115, 116 and Adcetris; type: in vivo, Wistar rats; conditions: as in legend of FIG. 19a-c: 115/116 at 40, 60, 70 or 80 mg/kg, Adcetris at 15, 20 or 40 mg/kg, mean body weight
Experimental: […] The test items were administered via intravenous (bolus) injection using a microflex infusion set introduced into a tail vein (2 mL/kg at 1 mL/min). One group of animals was treated with vehicle (control). After dosing, all animals were maintained for a 12-day observation period. Surviving animals were euthanized on day 12. Each animal was weighed at the time of randomization/selection, prior to dosing (day 0) and on all subsequent days up to day 12. Any individual animal with a single observation of >30% body weight loss or three consecutive measurements of >25% body weight loss was euthanized. All animals (including any found dead or killed moribund) were submitted to full necropsy procedures. Histopathological examinations of the liver, spleen and sciatic nerve was performed for all animals. Blood samples (including for animals killed moribund) were collected and subjected to determination of both haematological as well as serum clinical chemistry parameters.

[3] = test system: Trastuzumab having high-mannose glycans; assay: Trimming of high-mannose trastuzumab glycans by EndoSH; type: biochemical; conditions: 1 w/w % EndoSH, 37° C., after 3 hours, 25 mM Tris pH 8, MS analysis
Experimental: Trastuzumab having high-mannose glycans (obtained via transient expression in CHO K1 cells in the presence of kifunensine performed by Evitria (Zurich, Switzerland)) (14 mg/mL) in 25 mM Tris buffer pH 8, was trimmed using a concentration of either 0.1 or 1 w/w % EndoSH. The reactions, 350 μg high-mannose trastuzumab (25 μL) and the appropriate amount of EndoSH, were stirred at 37° C. and analyzed by MS analysis over time, 1-3 hours. Samples were subjected to Fabricator treatment prior to analysis.

Trastuzumab = assay: Trimming of trastuzumab glycans by EndoSH; type: biochemical; conditions: 0.1 w/w % EndoSH, 37° C., after 1 hour, 25 mM Tris pH 8, MS analysis
Experimental: Trastuzumab (obtained from Epirus biopharma (Utrecht, The Netherlands); 14 mg/mL) in 25 mM Tris buffer pH 8, was trimmed using a concentration of either 0.1 or 1 w/w % EndoSH. The reactions, 350 μg trastuzumab (25 μL) and the appropriate amount of EndoSH, were stirred at 37° C. and analyzed by MS analysis over time, 1 to 3 hours. Samples were subjected to Fabricator treatment prior to analysis.

Molecule | MTD (reported) [1] [mg/kg] | MTD [2] [mg/kg] | conversion to the trimmed product (core GlcNAc) [3] | conversion to the trimmed product (core GlcNAc) (Trastuzumab)
Adcetris: positive control; DAR4 ADC with antibody brentuximab and payload MMAE [reference compound] | 18 | 15 | – | –
EndoSH (protein, fusion protein EndoSH) MPSIDSLHYLSENSKKEFKEELSKAGQESQKVKEILAKAQQADKQAQELAKMKIPEKIPMKPLHGPLYGGYFRTWHDKTSDPTEKDKVNSMGELPKEVDLAFIFHDWTKDYSLFWKELATKHVPKLNKQGTRVIRTIPWRFLAGGDNSGIAEDTSKYPNTPEGNKALAKAIVDEYVYKYNLDGLDVDVEHDSIPKVDKKEDTAGVERSIQVFEEIGKLIGPKGVDKSRLFIMDSTYMADKNPLIERGAPYINLLLVQVYGSQGEKGGWEPVSNRPEKTMEERWQGYSKYIRPEQYMIGFSFYEENAQEGNLWYDINSRKDEDKANGINTDITGTRAERYARWQPKTGGVKGGIFSYAIDRDGVAHQPKKYAKQKEFKDATDNIFHSDYSVSKALKTVMLKDKSYDLIDEKDFPDKALREAVMAQVGTRKGDLERFNGTLRLDNPAIQSLEGLNKFKKLAQLDLIGLSRITKLDRSVLPANMKPGKDTLETVLETYKKDNKEEPATIPPVSLKVSGLTGLKELDLSGFDRETLAGLDAATLTSLEKVDISGNKLDLAPGTENRQIFDTMLSTISNHVGSNEQTVKFDKQKPTGHYPDTYGKTSLRLPVANEKVDLQSQLLFGTVTNQGTLINSEADYKAYQNHKIAGRSFVDSNYHYNNFKVSYENYTVKVTDSTLGTTTDKTLATDKEETYKVDFFSPADKTKAVHTAKVIVGDEKTMMVNLAEGATVIGGSADPVNARKVFDGQLGSETDNISLGWDSKQSIIFKLKEDGLIKHWRFFNDSARNPETTNKPIQEASLQIFNIKDYNLDNLLENPNKFDDEKYWITVDTYSAQGERATAFSNTLNNITSKYWRVVFDTKGDRYSSPVVPELQILGYPLPNADTIMKTVTTAKELSQQKDKFSQKMLDELKIKEMALETSLNSKIFDVTAINANAGVLKDCIEKRQLLKKGGGGSGGGGSGGGGSHHHHHHEFGGGGSGGGGSGGGGSAPAPVKQGPTSVAYVEVNNNSMLNVGKYTLADGGGNAFDVAVIFAANINYDTGTKTAYLHFNENVQRVLDNAVTQIRPLQQQGIKVLLSVLGNHQGAGFANFPSQQAASAFAKQLSDAVAKYGLDGVDFDDEYAEYGNNGTAQPNDSSFVHLVTALRANMPDKIISLYNIGPAASRLSYGGVDVSDKFDYAWNPYYGTWQVPGIALPKAQLSPAAVEIGRTSRSTVADLARRTVDEGYGVYLTYNLDGGDRTADVSAFTRELYGSEAVRTP | – | – | Full conversions | Full conversions

From US11951175B2, “Bioconjugates containing sulfamide linkers for use in treatment” (priority 2016, dated 2024)
